Four molecules from patent US20170320960A1 can be followed below.

The test deals with hMFI2-ECD-His (extracellular domain of human MFI2, residues G20-C709, with Histidine tag) (human) (UniProt P08582). The experiment in a line: SPR (BIAcore 2000): antibody captured, monomeric MFI2-His flowed, 1:1 Langmuir fit; species not given, taken as hMFI2-His.
hMFI2-ECD-His (extracellular domain of human MFI2, residues G20-C709, with Histidine tag) (human), sequence (P08582 20-709 limits assumed, form in doubt): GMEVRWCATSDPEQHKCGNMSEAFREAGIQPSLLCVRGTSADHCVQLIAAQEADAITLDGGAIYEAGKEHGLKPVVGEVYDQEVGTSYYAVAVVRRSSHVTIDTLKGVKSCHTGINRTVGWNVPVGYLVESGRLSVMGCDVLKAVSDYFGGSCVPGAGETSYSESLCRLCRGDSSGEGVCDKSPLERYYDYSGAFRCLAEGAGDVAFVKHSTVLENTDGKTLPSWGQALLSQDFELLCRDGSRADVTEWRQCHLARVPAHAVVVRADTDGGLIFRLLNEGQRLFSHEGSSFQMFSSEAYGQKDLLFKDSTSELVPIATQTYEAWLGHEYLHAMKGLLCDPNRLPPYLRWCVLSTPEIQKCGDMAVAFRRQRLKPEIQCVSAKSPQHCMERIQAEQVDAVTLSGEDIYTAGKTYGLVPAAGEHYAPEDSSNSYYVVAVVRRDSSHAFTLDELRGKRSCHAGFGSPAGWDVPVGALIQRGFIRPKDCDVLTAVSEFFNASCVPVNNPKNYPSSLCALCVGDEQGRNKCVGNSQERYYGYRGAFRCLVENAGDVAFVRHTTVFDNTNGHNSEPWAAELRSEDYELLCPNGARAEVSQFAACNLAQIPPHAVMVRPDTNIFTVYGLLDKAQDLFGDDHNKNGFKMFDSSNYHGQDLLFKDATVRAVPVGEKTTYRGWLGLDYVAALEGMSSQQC

B1: hSC57.5 (antibody, human IgG1, kappa, V domains shown)
VH: EVQLVQSGAEVKKPGESLKISCKGSGYSFTDYYLHWVRQMPGKGLEWMGRINPYNGATSYNQIFKDQVTISADKSISTAYLQWSSLKASDTAMYYCARGGDYDFPWYWGQGTTVTVSS
VL: DIQMTQSPSSLSASVGDRVTITCKASQDVYAAVAWYQQKPGKAPKLLIYWASTRHAGVPSRFSGSGSGTDFTLTISSLQPEDFATYYCQQHYRTPWTFGQGTKVEIKR
For B1, the Kd came to 4.4 nM.

B2: SC57.11 (antibody, V domains shown)
VH: QVQLQQSGAELMKPGASVKISCKATGYTFSNYRIEWMKQRPGHGLEWIGEILPRTGNTNYNENFKGKATFTADTSSNTAYIQLSSLTSEDSAVYYCARDDGYYGRFAYWGQGTLVTVSA
VL: DIQMTQTTSSLSASLGDRVTISCRASQDISSYLNWYQQKPDGTVKLLIYYTSRLHSGVPSRFSGSGSGTDYSLTINNLEQEDIATYFCQQGNTLPPTFGGGTKLEIK
For the molecule B2, the Kd stood at 3.2 nM.

B3: SC57.46 (antibody, V domains shown)
VH: QVQLKESGPGLVAPSQSLSITCTVSGFSLTSYGVHWVRQPPGKGLEWLGIIWAGGTTNYNSALMSRLSIRKDNSKSQVFLKMNSLQTDDTAMYYCARDRGYDGYFDYAVDYWGQGTSVTVSS
VL: DIQMTQSPPSLSASVGETVTITCRTSENIYSYLTWYQQKQGKSPQLLVYNAKTLAEGVPSRFSGSGSGTQFSLKINSLQPEDFGSYYCQHHYGTPLTFGAGTKLELK
In turn, B3 showed a Kd of 4.5 nM. The Kd values of the last two molecules are within 1.5-fold of each other.

B4: SC57.5 (antibody, V domains shown)
VH: EVQLQQSGPELVKPGASVKISCKASGYSFTDYYLHWVKQSHVKSLEWIGRINPYNGATSYNQIFKDKASLTVDKSSSTAYMDLHSLTSEDSAVYYCARGGDYDFPWYWGQGTTLTVSP
VL: DIVMTQSHKFMSTSVGDRVSITCKASQDVYAAVAWYHQKPGQSPKLLIYWASTRHAGVPDRFTGSGSGTDYTLTISSVQAEDLALYYCQQHYRTPWTFGGGTKLEIK
Take B4: the Kd was 1.1 nM.
